For data set [1], the system named is OmpL1-PhoA fusion protein [phosphatase: P00634].
Data set [2] has as its target OmpL1, 31 kD outer membrane protein of Leptospira alstoni (native protein) (Leptospira alstoni serovar grippotyphosa). Nature of the data set: immunoelectron microscopy of intact L. alstoni, protein G-colloidal gold (control serum).

Chain of OmpL1-PhoA fusion protein [phosphatase: P00634] (P00634 27-471): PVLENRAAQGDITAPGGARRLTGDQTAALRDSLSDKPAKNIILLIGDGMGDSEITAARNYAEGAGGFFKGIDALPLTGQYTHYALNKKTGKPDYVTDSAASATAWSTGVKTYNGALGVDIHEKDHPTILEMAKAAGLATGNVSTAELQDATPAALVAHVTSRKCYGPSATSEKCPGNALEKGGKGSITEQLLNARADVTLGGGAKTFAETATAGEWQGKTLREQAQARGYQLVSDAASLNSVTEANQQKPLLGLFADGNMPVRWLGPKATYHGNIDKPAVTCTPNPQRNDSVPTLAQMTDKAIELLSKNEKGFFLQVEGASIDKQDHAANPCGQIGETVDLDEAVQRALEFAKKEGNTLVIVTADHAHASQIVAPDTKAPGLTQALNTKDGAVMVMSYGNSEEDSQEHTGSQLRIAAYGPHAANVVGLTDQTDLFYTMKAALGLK

As for “E. coli leader peptidase 1 (strain IT41, temperature sensitive mutation)”, the “cleavage of the OmpL1-PhoA fusion protein in E. coli IT41” value in data set [1] is “Cleavage of the OmpL1-PhoA fusion protein was demonstrated at the permissive temperature of 32° C., but not at the restrictive temperature of 37 °C”. In data set [2], “preimmune serum from the same rabbit as the anti-OmpL1 antiserum (antibody)” showed a gold particles per twenty organisms (particles per twenty organisms) of 1.

The record behind these values is patent publication US6685945.
